Positions count from the first letter of the chain named.
Assays:
[1] = biological target: T1, recombinant human latent myostatin (human, UniProt O14793 24-375, biotinylated (in the Octet pH assay only)); assay: cell-based or functional assay
human pro-myostatin [2] = biological target: T2, human pro-myostatin (human, UniProt O14793 24-375, biotinylated (in the SPR assay)); assay: Ab KD, summary Table 11; method and antigen not stated there
T2 construct: Disulfide-linked homodimer; also called proGDF8 (human)

[3] = biological target: T1, recombinant human latent myostatin; assay: BLI Octet Red384, biotin human latent myostatin on streptavidin tips
Description: (§1) Binding was performed at pH 7.4 and dissociation at pH 5.5 in an Octet Red384@assay. Streptavidin biosensors were baselined in 1x kinetics buffer (KB) (Sartorius) for one minute, then loaded with 100 nM biotinylated human latent myostatin for five minutes, followed by another baseline step of one minute in 1x KB. Binding of test antibodies was performed for five minutes and then dissociation was performed in PBS at either pH 7.4 or pH 5.5 for five minutes. Analysis was performed using a partial fit, in which full dissociation was projected. Kd at pH 5.5 was divided by Kd at pH 7.4 to calculate pH sensitivity.

human pro-myostatin [4] = biological target: T2, human pro-myostatin; assay: Fab KD, summary Table 11; method and antigen not stated there
human pro-myostatin [5] = biological target: T2, human pro-myostatin; assay: SPR Biacore 8K, biotin-antigen captured
[6] = biological target: T1, recombinant human latent myostatin; assay: BLI (Octet Red384): streptavidin biosensors loaded with biotinylated human latent myostatin, antibody association 300 s, dissociation in PBS at pH 7.4 or pH 5.5
Description: as §1

human pro-myostatin [7] = biological target: T2, human pro-myostatin; assay: cell-based or functional assay
[8] = biological target: T1, recombinant human latent myostatin; assay: cell-based or functional assay; remark: listed apart in the source
murine pro-myostatin [9] = biological target: T3, murine pro-myostatin (mouse, UniProt O08689 25-376, biotinylated (in the SPR assay)); assay: SPR Biacore 8K, biotin-antigen captured
T3 construct: also called proGDF8 (mouse); mouse pro-myostatin

cyno pro-myostatin = biological target: T4, cyno pro-myostatin (cynomolgus monkey, Biotinylated for capture in the SPR assay (site not stated). The native form is a disulfide-linked homodimer, partly furin-cleaved; one chain is given.); assay: SPR Biacore 8K, biotin-antigen captured
T4 construct: also called proGDF8 (cynomolgus); cynomolgus monkey pro-myostatin

human GDF-11 = human GDF-11 (human, UniProt O95390 299-407, limits assumed); assay: plate binding assay, OD 450 nm, one antibody concentration that is not given, on Hu-GDF-11 (method not described in the text)
mouse GDF-11 = mouse GDF-11 (mouse, UniProt Q9Z1W4 297-405, limits assumed); assay: plate binding assay, OD 450 nm, one antibody concentration that is not given, on Mu-GDF-11 (method not described in the text)
murine pro-myostatin [10] = biological target: T3, murine pro-myostatin; assay: plate binding assay, OD 450 nm, antibody titrated 0.0003 to 100 nM, panel 'Mu-Pro-GDF-8 Plate 2' (method not described in the text)

Chain of human GDF-11 (O95390 299-407 limits assumed): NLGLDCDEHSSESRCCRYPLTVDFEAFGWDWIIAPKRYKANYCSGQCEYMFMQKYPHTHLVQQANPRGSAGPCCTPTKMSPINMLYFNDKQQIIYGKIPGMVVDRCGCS
Chain of mouse GDF-11 (Q9Z1W4 297-405 limits assumed): as the sequence (O95390 299-407 limits assumed) above

B1: Ab131 (antibody, human IgG4 S228P, kappa, V domains shown)
VH: EVQLVESGGGLVQPGGSLRLSCAASGSAFSSYGMSWVRQAPGKGLELVASIGGTGATYYPDSVKGRFTISRDNAKNSLYLQMNSLRAEDTAVYYCARDLLVRFLEWGHYYGMDVWGQGTTVTVSS
VL: DIVMTQSPLSLPVTPGEPASISCRSSQSLLHSSGYNFLHWYLQKPGQSPQLLIYAASSRAPGIPDRFSGSGSGTDFTLKISRVEAEDVGVYYCQHGGQGPTFGGGTKVEIKR
- mTLL2 IC50 [1]: 0.208 nM
- Kd (human pro-myostatin [2]): 0.155 nM
- fold difference in off-rate (Kd at pH 5.5 / Kd at pH 7.4) [3]: 0.9 fold

B2: Ab105 Fab (Fab, V domains shown)
VH: B1 VH
VL: DIVMTQSPLSLPVTPGEPASISCRSSQSLLHSSGYNFLHWYLQKPGQSPQLLIYAASSRAPGIPDRFSGSGSGTDFTLKISRVEAEDVGVYYCMHGGQGPTFGGGTKVEIK
notes: Fab of Ab105
- Kd (human pro-myostatin [4]): 21.9 nM

B3: Fab fragment of Ab109 (Fab, V domains shown)
VH: B1 VH with S27F, A28T, I51F, G52T, T54S, A56G, V101I, G107S
VL: DIVMTQSPLSLPVTPGEPASISCRSSQSLLHSSGHNFLHWYLQKPGQSPQLLIYEVSNRVSGVPDRFSGSGSGTDFTLKISRVEAEDVGVYYCMQQTQYPPTFGGGTKVEIK
notes: Fab of Ab109 (molecular weight 49.25 kDa); also called Ab109 Fab
- Kd (human pro-myostatin [4]): 39.5 nM

B4: Ab132 Fab (Fab, V domains shown)
VH: B1 VH with S27F, A28T, I51F, G52T, T54S, A56G, V101I, G107S
VL: B3 VL with M94Q
notes: Fab of Ab132
- Kd (human pro-myostatin [4]): 61.4 nM

B5: Ab131 Fab (Fab, V domains shown)
VH: B1 VH
VL: B2 VL with M94Q
notes: Fab of Ab131
- Kd (human pro-myostatin [4]): 17.4 nM

B6: Ab133 Fab (Fab, V domains shown)
VH: B1 VH with S27F, A28T, I51F, G52T, T54S, A56G, T57A, V101I, G107S
VL: B3 VL with M94Q, P101G
notes: Fab of Ab133
- Kd (human pro-myostatin [4]): 23 nM

B7: Ab141 Fab (Fab, V domains shown)
VH: B1 VH with S27F, A28T, I51F, G52T, T54S, A56G, T57A, V101I, G107S
VL: B3 VL with P101G
notes: Fab of Ab141
- Kd (human pro-myostatin [4]): 19 nM

B8: Ab138 (antibody, human IgG4 S228P, kappa, V domains shown)
VH: EVQLVESGGGLVQPGGSLRLSCAASGFTFTSYGMSWVRQAPGKGLELVASITGSKGETYYPDSVKGRFTISRDNAKNSLYLQMNSLRAEDTAVYYCARDLLVRFLEWSHYYGMDVWGQGTTVTVSS
VL: DIVMTQSPLSLPVTPGEPASISCRSSQSLLHSSGHNFLHWYLQKPGQSPQLLIYETSNRAPGIPDRFSGSGSGTDFTLKISRVEAEDVGVYYCQQATQFPRPFGGGTKVEIKR
- Kd (human pro-myostatin [5]): 0.11 nM
- koff (human pro-myostatin [5]): 0.000577 s⁻¹
- kon (human pro-myostatin [5]): 5.27e+06 M⁻¹ s⁻¹
- fold difference in off-rate (Kd at pH 5.5 / Kd at pH 7.4) [6]: 7.9 fold

B9: Ab102 Fab (Fab, V domains shown)
VH: B8 VH with K55G
VL: B3 VL with V56T, V60A, S61P, V63I, Q96A, Y99F, P101R, T102P
- Kd (human pro-myostatin [4]): 44.4 nM

B10: Ab137 (antibody, human IgG4 S228P, kappa, V domains shown)
VH: B1 VH with S27F, A28T, I51F, G52T, T54S, A56G, V101I
VL: B8 VL with T56V, A60V, P61S, I63V, Q94M, A96Q, F99Y, R101P, P102T
- fold difference in off-rate (Kd at pH 5.5 / Kd at pH 7.4) [6]: 26 fold

B11: Ab139 (antibody, human IgG4 S228P, kappa, V domains shown)
VH: B1 VH with S27F, A28T, I51F, G52T, T54S, T57A, V101I, G107S
VL: B8 VL with T56S, A60V, P61S, I63V, A96Q, F99Y, R101P, P102T
- Kd (human pro-myostatin [5]): 0.121 nM
- koff (human pro-myostatin [5]): 0.0023 s⁻¹
- kon (human pro-myostatin [5]): 1.9e+07 M⁻¹ s⁻¹
- fold difference in off-rate (Kd at pH 5.5 / Kd at pH 7.4) [6]: 16.3 fold

B12: Ab140 (antibody, human IgG4 S228P, kappa, V domains shown)
VH: B1 VH with S27F, A28T, I51F, G52T, T54S, A56G, L99N, V101I, G107S
VL: B8 VL with T56V, A60E, P61S, I63V, A96Q, F99Y, R101P, P102T
- Kd (human pro-myostatin [5]): 0.109 nM
- koff (human pro-myostatin [5]): 0.000711 s⁻¹
- kon (human pro-myostatin [5]): 6.53e+06 M⁻¹ s⁻¹
- fold difference in off-rate (Kd at pH 5.5 / Kd at pH 7.4) [6]: 10.4 fold

B13: Ab130 Fab (Fab, V domains shown)
VH: B8 VH with K55G
VL: B3 VL with V56T, V60A, S61P, V63I, M94Q, Q96A, Y99F, P101R, T102P
notes: Fab of Ab130
- Kd (human pro-myostatin [4]): 53.8 nM

B14: Ab112 Fab (Fab, V domains shown)
VH: QVQLVQSGAEVKKPGASVKVSCKVSGGTFGIYAIHWVRQAPGKGLEWMGGTIPVFGTAIYAQKFQGRVTMTEDTSTDTAYMELSSLKSEDTAVYYCASLTGIAAAGTHPARGGMDVWGQGTTVTVSS
VL: DIQMTQSPSSVSASVGDRVTITCRASPSISSYLAWYQQKPGKAPKLLIYAASRLQSGVPSRFSGSGSGTDFTLTISSLQPEDFANYYCQEYLSFPLTFGGGTKVEIK
notes: Fab of Ab112; also called Ab112 Fab fragment
- Kd (human pro-myostatin [4]): 6.19 nM

B15: Ab123 (antibody, human IgG4 S228P, kappa, V domains shown)
VH: EVQLVESGGGLVQPGGSLRLSCAASGFTFSKYDMSWVRQAPGKGLELVASISSSGGTRYYPDSVKGRFTISRDNAKNSLYLQMNSLRAEDTAVYYCAKDLWVASPGYGMDVWGQGTTVTVSS
VL: DIVMTQSPLSLPVTPGEPASISCRSSQSLLHSSGHNYLHWYLQKPGQSPQLLIYLGSIRAPGVPDRFSGSGSGTDFTLKISRVEAEDVGVYYCMQALLNPPTFGGGTKVEIKR
- IC50 (nM) Pro + Furin (human pro-myostatin [7]): 0.184 nM
- IC50 (nM) Latent + mTLL2 [8]: 0.139 nM
- mTLL2 IC50 [1]: 0.139 nM
- Kd (human pro-myostatin [5]): 0.394 nM
- koff (human pro-myostatin [5]): 0.000543 s⁻¹
- kon (human pro-myostatin [5]): 1.38e+06 M⁻¹ s⁻¹
- Kd (murine pro-myostatin [9]): 0.618 nM
- koff (murine pro-myostatin [9]): 0.000772 s⁻¹
- kon (murine pro-myostatin [9]): 1.25e+06 M⁻¹ s⁻¹
- Kd (cyno pro-myostatin): 0.339 nM
- koff (cyno pro-myostatin): 0.000539 s⁻¹
- kon (cyno pro-myostatin): 1.59e+06 M⁻¹ s⁻¹
- Kd (human pro-myostatin [2]): 0.683 nM
- binding result (human GDF-11): no binding
- binding result (mouse GDF-11): no binding

B16: Ab123 Fab (Fab, V domains shown)
VH: B15 VH
VL: B15 VL
notes: Fab of Ab123; also called Ab123 Fab fragment
- Kd (human pro-myostatin [4]): 5.51 nM

B17: Ab120 (antibody, human IgG4 S228P, kappa, V domains shown)
VH: QVQLVQSGAEVKKPGASVKVSCKVSGGTFSTFHIHWVRQAPGKGLEWMGGISAYSGSTIYAQKFQGRVTMTEDTSTDTAYMELSSLKSEDTAVYYCARARYVDDAFDIWGQGTMVTVSS
VL: DIQMTQSPSSVSASVGDRVTITCRASEDISNFLAWYQQKPGKAPKLLIYAASDLLSGVPSRFSGSGSGTDFTLTISSLQPEDFANYYCQKYISAPSFGGGTKVEIKR
- binding result (human GDF-11): no binding
- binding result (mouse GDF-11): no binding
- binding result (murine pro-myostatin [10]): binds

Reference: US20260209325A1 (SCHOLAR ROCK, published 2026)
